Experimental data published in patent publication US20220041711A1 (NGM BIOPHARMACEUTICALS, published 2022).
Each block holds one binder with its values, some of them ahead of it.

What was measured:
[1] = molecular target: T1, human LAIR-1-CD3ζ chimeric receptor on NFAT-GFP reporter cells (human, UniProt P20963 31-164, limits assumed); test: cell-based or functional assay
[2] = molecular target: T2, cyno LAIR-1-CD3ζ chimeric receptor on NFAT-GFP reporter cells (cynomolgus monkey; human); test: cell-based or functional assay
[3] = molecular target: T1, human LAIR-1-CD3ζ chimeric receptor on …; test: cell-based or functional assay; remark: listed apart in the source
[4] = molecular target: T2, cyno LAIR-1-CD3ζ chimeric receptor on …; test: cell-based or functional assay; remark: listed apart in the source
human LAIR-1-Fc = molecular target: T3, human LAIR-1-Fc (human, UniProt Q6GTX8 22-165); test: ELISA blocking: plate coated with 5 µg/mL human collagen type 1, antibody titrated, 1 µg/mL biotinylated human LAIR-1-Fc, streptavidin-HRP, OD650
T3 construct: also called biotinylated human LAIR-1-Fc; not shown: a Fc region
T3 chain: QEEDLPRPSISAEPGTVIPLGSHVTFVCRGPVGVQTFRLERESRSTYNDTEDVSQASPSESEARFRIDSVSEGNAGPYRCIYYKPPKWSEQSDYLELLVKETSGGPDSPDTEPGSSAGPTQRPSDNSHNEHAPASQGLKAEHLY

[5] = molecular target: T4, mouse LAIR-1 (form in the assay not stated) (mouse, UniProt Q8BG84 22-144, limits assumed); test: not described
T4 sequence: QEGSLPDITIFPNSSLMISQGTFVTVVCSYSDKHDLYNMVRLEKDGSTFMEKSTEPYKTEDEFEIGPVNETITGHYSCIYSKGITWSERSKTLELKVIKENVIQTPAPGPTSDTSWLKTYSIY

human LAIR-1-ECD = molecular target: T5, human LAIR-1-ECD (human, UniProt Q6GTX8 22-165); test: SPR (Biacore) as in Example 2
T5 construct: Recombinant, expressed in mammalian cells; also called extracellular region of human LAIR-1
T5 chain: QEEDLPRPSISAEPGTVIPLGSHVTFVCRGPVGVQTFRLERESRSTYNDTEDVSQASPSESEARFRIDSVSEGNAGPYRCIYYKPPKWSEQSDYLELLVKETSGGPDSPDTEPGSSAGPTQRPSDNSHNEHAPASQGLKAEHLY

[6] = molecular target: T4, mouse LAIR-1 (form in the assay not …); test: SPR (Biacore)
[7] = molecular target: T6, SCARA5 expressed on transfected 293T cells (UniProt Q6ZMJ2 1-495, limits assumed); test: flow cytometry on 293T-SCARA5 cells, Alexa647 anti-mouse IgG secondary
T6 construct: whole, on cells

[8] = molecular target: T7, human MARCO expressed on cells (721.221-MARCO, 293T-MARCO) (human, UniProt Q9UEW3 1-520); test: flow cytometry, antibody at 2.5 µg/mL, Alexa647 anti-mouse IgG secondary
T7 construct: also called 721.221 cells expressing MARCO
T7 sequence: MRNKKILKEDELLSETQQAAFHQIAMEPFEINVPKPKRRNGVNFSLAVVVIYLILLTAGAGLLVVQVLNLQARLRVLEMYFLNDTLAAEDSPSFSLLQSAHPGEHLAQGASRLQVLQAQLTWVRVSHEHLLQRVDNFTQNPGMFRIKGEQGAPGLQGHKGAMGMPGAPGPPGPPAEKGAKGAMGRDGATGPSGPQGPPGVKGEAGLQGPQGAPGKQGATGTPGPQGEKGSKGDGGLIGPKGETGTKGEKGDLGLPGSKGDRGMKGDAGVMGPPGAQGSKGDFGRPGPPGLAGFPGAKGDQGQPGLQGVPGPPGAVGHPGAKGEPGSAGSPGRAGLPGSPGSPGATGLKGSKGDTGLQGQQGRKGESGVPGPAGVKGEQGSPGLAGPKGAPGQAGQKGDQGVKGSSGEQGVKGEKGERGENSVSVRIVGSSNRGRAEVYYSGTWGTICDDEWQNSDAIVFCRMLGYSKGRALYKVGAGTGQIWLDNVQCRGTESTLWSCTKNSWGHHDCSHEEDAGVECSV

[9] = molecular target: T8, collagen 17A1 (COL17A1) expressed on 721.221 cells (UniProt Q9UMD9 1-1497, limits assumed); test: IHC on 721.221 stable cell lines; '-' = no detectable signal
T8 construct: whole, on cells
T8 sequence (looked up): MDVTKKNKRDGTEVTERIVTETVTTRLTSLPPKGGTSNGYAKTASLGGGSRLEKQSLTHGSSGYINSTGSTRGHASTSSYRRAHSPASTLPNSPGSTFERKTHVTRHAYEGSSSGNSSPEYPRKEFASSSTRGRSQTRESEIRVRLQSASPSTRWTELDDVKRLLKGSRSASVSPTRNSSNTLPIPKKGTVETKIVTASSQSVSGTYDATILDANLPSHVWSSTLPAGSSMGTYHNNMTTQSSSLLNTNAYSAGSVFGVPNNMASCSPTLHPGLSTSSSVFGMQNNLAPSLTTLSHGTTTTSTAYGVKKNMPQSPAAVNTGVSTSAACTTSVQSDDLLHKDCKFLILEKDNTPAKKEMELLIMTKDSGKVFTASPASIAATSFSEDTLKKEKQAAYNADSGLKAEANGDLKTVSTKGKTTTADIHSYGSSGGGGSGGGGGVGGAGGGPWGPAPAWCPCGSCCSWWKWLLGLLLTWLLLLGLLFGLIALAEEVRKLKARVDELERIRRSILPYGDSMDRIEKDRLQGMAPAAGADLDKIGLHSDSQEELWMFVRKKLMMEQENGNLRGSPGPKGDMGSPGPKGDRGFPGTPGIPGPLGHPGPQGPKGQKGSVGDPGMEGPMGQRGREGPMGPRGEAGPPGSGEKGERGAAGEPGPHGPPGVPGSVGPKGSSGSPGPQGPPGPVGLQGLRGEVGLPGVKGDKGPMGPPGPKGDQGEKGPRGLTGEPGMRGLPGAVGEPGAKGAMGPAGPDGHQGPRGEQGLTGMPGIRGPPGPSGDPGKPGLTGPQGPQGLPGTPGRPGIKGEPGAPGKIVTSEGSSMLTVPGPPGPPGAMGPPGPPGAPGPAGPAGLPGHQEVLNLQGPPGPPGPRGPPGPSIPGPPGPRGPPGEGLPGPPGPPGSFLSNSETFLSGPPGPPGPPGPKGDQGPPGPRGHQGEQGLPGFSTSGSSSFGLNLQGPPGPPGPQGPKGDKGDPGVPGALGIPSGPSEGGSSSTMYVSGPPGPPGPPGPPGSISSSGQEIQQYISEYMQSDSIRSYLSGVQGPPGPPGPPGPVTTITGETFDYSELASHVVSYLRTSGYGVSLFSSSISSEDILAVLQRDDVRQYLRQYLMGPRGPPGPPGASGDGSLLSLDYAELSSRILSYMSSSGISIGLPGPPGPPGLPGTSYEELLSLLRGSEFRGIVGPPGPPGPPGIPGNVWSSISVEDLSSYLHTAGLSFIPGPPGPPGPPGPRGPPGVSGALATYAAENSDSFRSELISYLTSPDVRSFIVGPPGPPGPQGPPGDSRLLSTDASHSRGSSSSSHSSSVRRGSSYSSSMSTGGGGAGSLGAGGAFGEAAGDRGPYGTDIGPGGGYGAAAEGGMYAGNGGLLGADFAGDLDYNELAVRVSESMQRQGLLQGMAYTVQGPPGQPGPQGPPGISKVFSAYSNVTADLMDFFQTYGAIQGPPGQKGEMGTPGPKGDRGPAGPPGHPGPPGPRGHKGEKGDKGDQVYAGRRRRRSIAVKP

[10] = molecular target: T9, COL13A1 expressed on transfected 293T cells (UniProt Q5TAT6 1-717, limits assumed); test: IHC on 293T-transfected cell pellets; '-' = no detectable signal
T9 construct: whole, on cells

[11] = molecular target: T10, CD163L expressed on transfected 293T cells (UniProt Q9NR16 41-1453); test: flow cytometry on 293T-CD163L cells, Alexa647 anti-mouse IgG secondary
T10 construct: whole, on cells

[12] = molecular target: T11, MSR1 expressed on transfected 293T cells (UniProt P21757 1-451, limits assumed); test: flow cytometry on 293T-MSR1 cells, Alexa647 anti-mouse IgG secondary
T11 construct: whole, on cells
T11 sequence (looked up): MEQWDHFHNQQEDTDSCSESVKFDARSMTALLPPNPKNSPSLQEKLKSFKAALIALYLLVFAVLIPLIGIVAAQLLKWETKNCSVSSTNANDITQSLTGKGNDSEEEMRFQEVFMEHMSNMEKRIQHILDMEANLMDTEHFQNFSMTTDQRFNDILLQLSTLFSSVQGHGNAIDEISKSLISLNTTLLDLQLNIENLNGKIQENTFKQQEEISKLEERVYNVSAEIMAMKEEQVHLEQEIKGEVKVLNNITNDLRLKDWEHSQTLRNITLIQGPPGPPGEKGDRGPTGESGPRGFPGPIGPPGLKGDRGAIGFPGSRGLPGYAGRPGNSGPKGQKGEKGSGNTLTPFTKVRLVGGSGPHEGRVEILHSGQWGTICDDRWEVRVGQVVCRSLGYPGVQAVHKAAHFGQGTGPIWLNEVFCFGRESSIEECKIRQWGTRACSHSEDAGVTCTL

[13] = molecular target: T12, human MARCO (form in the assay not stated) (human, UniProt Q9UEW3 79-520, limits assumed); test: ELISA, FACS and IHC screening
T12 sequence: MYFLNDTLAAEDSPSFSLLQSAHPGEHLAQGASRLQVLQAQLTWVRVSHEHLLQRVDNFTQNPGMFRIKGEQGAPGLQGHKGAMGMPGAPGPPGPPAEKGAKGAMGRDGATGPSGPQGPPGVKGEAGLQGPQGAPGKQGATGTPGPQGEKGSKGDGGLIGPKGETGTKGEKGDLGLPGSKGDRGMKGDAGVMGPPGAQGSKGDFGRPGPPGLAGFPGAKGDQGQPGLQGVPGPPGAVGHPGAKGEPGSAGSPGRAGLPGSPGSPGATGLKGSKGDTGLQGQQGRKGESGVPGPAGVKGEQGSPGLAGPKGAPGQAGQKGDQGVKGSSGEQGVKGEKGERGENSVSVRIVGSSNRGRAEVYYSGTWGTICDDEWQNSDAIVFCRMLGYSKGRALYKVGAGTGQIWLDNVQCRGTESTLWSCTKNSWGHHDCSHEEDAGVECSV

T2 sequence (P20963 other isoform, or with tags, fused parts or gaps mutant limits assumed): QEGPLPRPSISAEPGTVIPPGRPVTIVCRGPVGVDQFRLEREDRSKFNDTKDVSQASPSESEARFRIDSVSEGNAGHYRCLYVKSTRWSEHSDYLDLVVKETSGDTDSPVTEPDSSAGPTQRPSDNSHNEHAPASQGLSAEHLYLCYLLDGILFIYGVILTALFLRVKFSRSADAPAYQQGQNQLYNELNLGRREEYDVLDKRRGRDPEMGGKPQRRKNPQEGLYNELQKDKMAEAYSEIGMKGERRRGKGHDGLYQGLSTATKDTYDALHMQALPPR
T9 sequence (Q5TAT6 whole entry): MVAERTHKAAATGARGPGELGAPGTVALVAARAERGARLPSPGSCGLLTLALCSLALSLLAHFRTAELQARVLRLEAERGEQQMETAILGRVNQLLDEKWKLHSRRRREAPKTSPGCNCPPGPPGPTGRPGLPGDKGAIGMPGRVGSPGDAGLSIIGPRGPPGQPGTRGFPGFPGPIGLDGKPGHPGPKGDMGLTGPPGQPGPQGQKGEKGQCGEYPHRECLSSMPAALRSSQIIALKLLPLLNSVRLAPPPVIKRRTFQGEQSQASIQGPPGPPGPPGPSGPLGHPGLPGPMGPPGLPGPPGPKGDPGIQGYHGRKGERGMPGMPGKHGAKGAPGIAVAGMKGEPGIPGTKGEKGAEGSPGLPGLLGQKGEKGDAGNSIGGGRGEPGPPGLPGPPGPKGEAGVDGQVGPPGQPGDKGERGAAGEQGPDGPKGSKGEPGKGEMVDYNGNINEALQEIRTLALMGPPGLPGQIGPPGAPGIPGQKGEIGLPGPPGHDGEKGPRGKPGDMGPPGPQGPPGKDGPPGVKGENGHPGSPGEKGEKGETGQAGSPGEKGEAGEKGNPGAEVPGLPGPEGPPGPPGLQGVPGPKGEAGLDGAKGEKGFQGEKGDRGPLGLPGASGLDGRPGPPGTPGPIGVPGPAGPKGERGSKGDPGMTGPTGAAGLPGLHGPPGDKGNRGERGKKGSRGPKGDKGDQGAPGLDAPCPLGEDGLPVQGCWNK
T6 sequence (Q6ZMJ2 whole entry): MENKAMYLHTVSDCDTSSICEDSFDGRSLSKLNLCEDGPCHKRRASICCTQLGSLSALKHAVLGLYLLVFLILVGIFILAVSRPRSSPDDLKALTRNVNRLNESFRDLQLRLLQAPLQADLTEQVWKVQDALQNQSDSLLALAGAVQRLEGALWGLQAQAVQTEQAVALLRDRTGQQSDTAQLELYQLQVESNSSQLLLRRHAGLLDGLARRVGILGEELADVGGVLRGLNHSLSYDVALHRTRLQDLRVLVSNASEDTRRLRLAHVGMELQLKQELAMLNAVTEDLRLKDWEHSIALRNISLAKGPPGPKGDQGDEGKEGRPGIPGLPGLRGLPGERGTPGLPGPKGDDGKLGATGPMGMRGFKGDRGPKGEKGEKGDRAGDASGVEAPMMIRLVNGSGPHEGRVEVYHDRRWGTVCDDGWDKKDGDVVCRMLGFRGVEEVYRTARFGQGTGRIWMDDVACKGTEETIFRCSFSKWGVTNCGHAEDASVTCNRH
T10 sequence (Q9NR16 41-1453): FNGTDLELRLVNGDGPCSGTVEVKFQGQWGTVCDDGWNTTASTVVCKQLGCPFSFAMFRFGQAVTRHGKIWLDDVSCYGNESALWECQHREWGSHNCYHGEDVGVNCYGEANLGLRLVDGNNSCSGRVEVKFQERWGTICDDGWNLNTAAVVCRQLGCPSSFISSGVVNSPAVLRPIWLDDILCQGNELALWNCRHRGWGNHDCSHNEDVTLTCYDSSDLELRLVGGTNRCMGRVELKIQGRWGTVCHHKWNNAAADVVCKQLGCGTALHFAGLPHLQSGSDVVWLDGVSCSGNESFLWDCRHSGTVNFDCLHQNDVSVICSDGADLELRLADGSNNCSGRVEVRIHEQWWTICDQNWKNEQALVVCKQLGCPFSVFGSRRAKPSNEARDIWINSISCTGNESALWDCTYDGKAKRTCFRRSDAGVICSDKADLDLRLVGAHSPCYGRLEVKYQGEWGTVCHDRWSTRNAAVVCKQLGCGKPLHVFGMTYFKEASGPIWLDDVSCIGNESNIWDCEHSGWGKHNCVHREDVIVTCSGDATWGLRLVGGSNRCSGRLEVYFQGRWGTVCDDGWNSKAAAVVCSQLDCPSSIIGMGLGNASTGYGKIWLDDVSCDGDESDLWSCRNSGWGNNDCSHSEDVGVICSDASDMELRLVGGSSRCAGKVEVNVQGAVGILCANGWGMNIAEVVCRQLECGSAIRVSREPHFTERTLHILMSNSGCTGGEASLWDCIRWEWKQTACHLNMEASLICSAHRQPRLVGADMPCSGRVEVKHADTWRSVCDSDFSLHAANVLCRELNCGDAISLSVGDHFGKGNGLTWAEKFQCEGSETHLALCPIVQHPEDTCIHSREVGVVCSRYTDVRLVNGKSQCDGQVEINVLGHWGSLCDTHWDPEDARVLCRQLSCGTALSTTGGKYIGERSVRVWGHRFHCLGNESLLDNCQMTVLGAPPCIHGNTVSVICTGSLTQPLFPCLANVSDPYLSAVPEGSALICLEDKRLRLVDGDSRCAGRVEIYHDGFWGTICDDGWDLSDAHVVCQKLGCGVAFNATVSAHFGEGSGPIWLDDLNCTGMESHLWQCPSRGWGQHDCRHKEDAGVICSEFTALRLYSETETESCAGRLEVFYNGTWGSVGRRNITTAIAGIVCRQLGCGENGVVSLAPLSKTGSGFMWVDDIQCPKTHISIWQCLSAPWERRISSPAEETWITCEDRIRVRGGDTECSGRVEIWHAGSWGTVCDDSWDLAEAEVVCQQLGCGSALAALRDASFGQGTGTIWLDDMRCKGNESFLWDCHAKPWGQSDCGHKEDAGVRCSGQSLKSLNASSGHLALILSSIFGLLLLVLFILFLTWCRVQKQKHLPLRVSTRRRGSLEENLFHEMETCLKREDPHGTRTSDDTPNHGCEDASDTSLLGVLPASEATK

IC50 (read off the curve): % GFP+ human LAIR-1 reporter cells on polymerized collagen matrix [1]: ~0.03 nM
IC50 (read off the curve): % GFP+ cyno LAIR-1 reporter cells on polymerized collagen matrix [2]: ~0.2 nM
IC50 (read off the curve): % GFP+ human LAIR-1 reporter cells on coated MARCO-his [3]: ~0.05 nM
IC50 (read off the curve): % GFP+ human LAIR-1 reporter cells on coated collagen 1 [3]: ~0.04 nM
IC50 (read off the curve): % GFP+ human LAIR-1 reporter cells on coated collagen 4 [3]: ~0.03 nM
IC50 (read off the curve): % GFP+ cyno LAIR-1 reporter cells on coated MARCO-his [4]: ~0.2 nM
IC50 (read off the curve): % GFP+ cyno LAIR-1 reporter cells on coated collagen 1 [4]: ~0.4 nM
IC50 (read off the curve): % GFP+ cyno LAIR-1 reporter cells on coated collagen 4 [4]: ~0.2 nM
IC50 (read off the curve) (human LAIR-1-Fc): ~3 nM
binding result [5]: no binding
Kd (human LAIR-1-ECD): 1.1 nM
koff (human LAIR-1-ECD): 0.00079 s⁻¹
kon (human LAIR-1-ECD): 700000 M⁻¹ s⁻¹
B1: humanized anti-LAIR-1 antibody Hz62G10.v1 (antibody, human IgG1, kappa, N297G, V domains shown)
VH: EVQLVESGGGLVKPGGSLRLSCAASGFTFNINAMNWVRQAPGKGLEWVARIRTKNNNFATYYADSVKDRFTISRDDSKNTLYLQMNSLKTEDTAVYYCVRGPYFDYWGQGTLVTVSS
VL: DIQMTQSPSSLSASVGDRVTITCLASQTIGTWLAWYQQKPGKAPKLLIYAATSLADGVPSRFSGSGSGTDFTLTISSLQPEDFATYYCQQLYSTPYTFGGGTKVEIKR
notes: Humanized 62G10

Kd [6]: 1.1 nM
koff [6]: 0.00057 s⁻¹
kon [6]: 530000 M⁻¹ s⁻¹
B2: ch43H2 (antibody, V domains shown)
VH: EVQLVESGGGLVQPGRSLKVSCAASGFTFSNYGIHWIRQAPTKGLEWVASISPSGRSTYFRDSVKGRFTISRDNAKNTLYLQLDSLRSEDTATYYCATGINYSSFDYWGQGVMVTVSS
VL: DIVMTQSPTSMSISVGDRVTMNCKASQNVGSHVDWYQQKTGQSPKLLISTASNRYTGVPDRFTGSGSGTDFTFTINNMQTEDLAVYYCMQSNSYPPTFGGGTKLELK
notes: also called purified ch43H2

binding result [7]: no binding (tested: 2.5 µg/mL)
binding result [8]: binds
binding result [9]: no binding
binding result [10]: no binding
binding result [11]: no binding (tested: 2.5 µg/mL)
binding result [12]: no binding (tested: 2.5 µg/mL)
binding result [13]: binds
B3: anti-MARCO antibody 10G4 (antibody, mouse IgG2a, kappa)
heavy: QVQLKESGPGLVAPSQSLSITCTVSGFSLSSYPISWVRQPPGKGLEWLGIIWTGGGTNYNSALKSRLSISKDNSKSQVFLKMNSLQTDDTARYYCASQNWDVNSALDYWGQGTSVTVSSAKTTAPSVYPLAPVCGDTTGSSVTLGCLVKGYFPEPVTLTWNSGSLSSGVHTFPAVLQSDLYTLSSSVTVTSSTWPSQSITCNVAHPASSTKVDKKIEPRGPTIKPCPPCKCPAPNAAGGPSVFIFPPKIKDVLMISLSPIVTCVVVDVSEDDPDVQISWFVNNVEVHTAQTQTHREDYNSTLRVVSALPIQHQDWMSGKEFKCKVNNKDLGAPIERTISKPKGSVRAPQVYVLPPPEEEMTKKQVTLTCMVTDFMPEDIYVEWTNNGKTELNYKNTEPVLDSDGSYFMYSKLRVEKKNWVERNSYSCSVVHEGLHNHHTTKSFSRTPGK
light: DIQMTQSPASLSVSVGETVTITCRASENIYSNLAWYQQKQGKSPQLLVYTATNLADGVPSRFSGSGSGTQYSLRINRLQSEDFGNYYCQHFWNAPWTFGGGTKLEIKRADAAPTVSIFPPSSEQLTSGGASVVCFLNNFYPKDINVKWKIDGSERQNGVLNSWTDQDSKDSTYSMSSTLTLTKDEYERHNSYTCEATHKTSTSPIVKSFNRNEC
notes: detected with anti-mouse IgG; copies: 2 + 2
